Measurements taken from patent US20050079151A1, “Therapeutic agents for apoptosis-related diseases” (priority 1998, published 2005).

Legend:
G401 cells = test: Inhibitory effect on apoptosis induced by carcinostatic (Hoechst staining method); assay type: cell-based
Method: Five groups were prepared; the untreated group, the cisplatin (100 μM) treated group, the MK (1, 10, or 100 ng/mL)+cisplatin (100 μM) treated groups.
G401 cells (2×10^4) were seeded on a 3.5 cm-dish and cultured in 10% FBS/DMEM overnight. 10% FBS/DMEM was added to each dish and further cultured for 24 to 48 hours. The cells were washed twice and cultured in 0.1% FBS/DMEM overnight. MK was added to the MK treatment groups to 1, 10, or 100 ng/ml and cultured in 0.1% FBS/DMEM for 6 hours. Cisplatin was added to the cisplatin treatment groups to 100 μM and cultured in 0.1% FBS/DMEM for 2 hours. After culturing, the cells were washed three times. Then, human MK was added to the MK treatment groups to 1, 10, or 100 ng/ml and cultured in 0.1% FBS/DMEM for 12 or 24 hours.
The cells were fixed with a fixative (methanol:acetic acid=3:1) at room temperature for 10 min, and dried at room temperature for 30 min. Hoechst 33342 (ICN Biomedicals; Ohio, USA) was added thereto to stain the cells at room temperature for 10 to 30 min. The cells were washed with water three times, wind-dried, and mounted onto a fluorescent microscope (Olympus, BX60) and photographed. FIGS. 2A, 2B, and 2C show the untreated group, the cisplatin (100 μM) treated group, and the MK (100 ng/mL)+cisplatin (100 μM) treated group, which were all cultured for 12 hours. […]

[1] = system: hippocampal region CA1 neurocytes; test: Apoptosis-inhibitory effect in vivo, transient forebrain ischemia, administration before ischemic damage; set-up: species or system Mongolian gerbil; conditions: for numbers of surviving nuclei contained in the CA1 region per unit length of CA1: mean±standard deviation, saline 18±25, Sham-op 265±38; for number of nuclei showing apoptosis positive reaction (TUNEL) against the total number of cells: saline 69.7±17.0, Sham-op 0.0±0.0; for numbers of neurocytes in CA1: 2 μg MK, saline 10±10, sham-op 263±31
From the text: (1) Six to 16 male Mongolian gerbils (6- to 8-week old, body weight: 60 to 80 g) for each group were housed in “HONEY MATIC M-3” (KIMURA MEDICAL INSTRUMENT LTD.), an anesthetic delivery device for Fluothane, and the container was filled with an appropriate amount of inhalation anesthetic “Fluothane” (halothane according to Japanese Phamacopeia). The anesthetized animals were fixed on an operating table equipped with an injection holder (NARISHINGE SCEITIFIC INSTRUMENT LAB.; TYPE SR-5N, No. 97024). After the head was subjected to midline incision, a hole for inserting a syringe of an appropriate size was made by a dental drill at a site 2 mm away from the bregma towards the left eyeball direction. Through this hole, 2 μl of 0.25 mg/ml, 0.5 mg/ml or 1 mg/ml MK solutions (0.5 μg, 1.0 μg, 2.0 μg ) (in physiological saline) were seperately injected into the ventricle with a microsyringe (HAMILTON MICROLITER #701). As control groups, a saline injected group and the sham operated (Sham-op) group were prepared. After injection into the ventricle, the mice were left for 4 min and the operated site was sutured. The chest was subjected to midline incision to expose both right and left common carotid arteries. The both arteries were ligated with two pieces of Sugita brain aneurysm clip (standard type; MIZUHO) to stop blood flow for 5 min, and the blood was circulated again. During ischemic loading, brain temperature and body temperature were maintained constant (37±0.2° C.). Each mouse was distinguished and housed in a nursery cage after coming out of anesthesia to breed, allowing the animals to freely intake water and food. After one week, the mice were fixed while perfusing with saline containing 0.2% heparin (Novo Heparin Injection 100; Japan Hoechet Marion Russell LTD) and 4% paraformaldehyde solution, and beheaded. The brain was excised using scissors, and immersed in 4% paraformaldehyde fixative for one day. The rear portion from 2 mm ahead of the bregma was divided into three using a double-edged razor (Feather). These sections were further fixed for 24 hours. Tissues containing dorsal hippocampus were dehydrated and penetrated, and embedded with paraffin.
A 5 μm section, from 0.5 to 1.0 mm from the tip of the hippocampus or from 1.4 to 1.9 mm behind the sagittal suture was prepared from this paraffin block and observed by the TUNEL method (In situ Apoptosis Detection Kit, TaKaRa). The results are shown in FIG. 8 (×25) and FIG. 9 (×100).
(2) By following the method described in (1), MK solution (0.063 μg, 0.125 μg, 0.25 μg, 0.5 μg, 1 fig, or 2 μg), was injected into the ventricle just before development of ischemic injury to examine protective effects of MK on delayed neuronal death. Seven days after the injury, the CA1 region were stained with hematoxylin-eosine. Micrographs in low magnification (×25) are shown in FIG. 10 (FIG. 10a: saline, FIG. 10b: Sham-op, FIG. 10c: MK 2 μg, FIG. 10d: MK 1 μg, FIG. 10e: MK 0.5 μg, FIG. 10f: MK 0.25 μg), and those in high magnification (×100) in FIG. 11 (FIG. 11a: saline, FIG. 11b: Sham-op, FIG. 11c: MK 2 μg, FIG. 11d: MK 1 vg, FIG. 11e: MK 0.5 vg, FIG. 11f: MK 0.25 μg).
For quantitative evaluation, the numbers of surviving nuclei contained in the CA1 region per unit length of CA1 were obtained (FIG. 12). The values were 18±25/mm(n=15, mean±standard deviation) for the saline administration group and 265±38 /mm (n=23) for the Sham-op group. For the 0.5, 1, or 2 μg MK administration groups, the values were 217±109 (n=7), 228±84 (n=8), and 243±82 (n=10), respectively. The values decreased when MK concentration was low (FIG. 12). There was a significant difference between the saline administrated group and MK administrated (0.5 to 2 μg MK) groups (ANOVA and post-hoc Fisher's PLSD teat, p<0.0001).
Whether the effect of MK administration (2 μg) continues was examined. […]

B1: MK: midkine, a heparin-binding growth and differentiation factor; human MK protein (SEQ ID NO: 3; or recombinant, secreted by yeast) (protein, UniProt P21741 21-143, looked up)
Midkine: VAKKKDKVKKGGPGSECAEWAWGPCTPSSKDCGVGFREGTCGAQTQRIRCRVPCNWKKEFGADCKYKFENWGACDGGTGTKVRQGTLKKARYNAQCQETIRVTKPCTPKTKAKAKAKKGKGKD
G401 cells; MK 100 ng/mL + cisplatin 100 μM, 12 and 24 hours, compared to cisplatin alone
  numbers of cells containing Hoechst 33342-stained nuclei with condensed chromatin and fragmented nuclei: remarkably decreased
G401 cells; MK 1, 10 or 100 ng/ml + cisplatin 100 μM, 12 and 24 hours culture, compared with the cisplatin treated group
  Frequency of apoptotic cell death (Hoechst 33342): decreased in a MK concentration-dependent fasion
[1]; 0.25 μg MK into the ventricle just before ischemic injury, seven days after
  nuclei in CA1 region, hematoxylin-eosine, high magnification: Deteriorated nuclei were observed
[1]; 0.5 μg MK just before ischemia, seven days after
  numbers of surviving nuclei contained in the CA1 region per unit length of CA1: 217±109 /mm
[1]; 0.5 μg MK just before ligation, seven days after
  number of nuclei showing apoptosis positive reaction (TUNEL) against the total number of cells: 7.8±19.8
[1]; 1 μg MK just before ischemia, seven days after
  numbers of surviving nuclei contained in the CA1 region per unit length of CA1: 228±84 /mm
[1]; 1 μg MK just before ligation, seven days after
  number of nuclei showing apoptosis positive reaction (TUNEL) against the total number of cells: 11.0±14.7
[1]; 2 μg MK just before ischemia, seven days after
  numbers of surviving nuclei contained in the CA1 region per unit length of CA1: 243±82 /mm
[1]; 2 μg MK just before ligation, seven days after
  number of nuclei showing apoptosis positive reaction (TUNEL) against the total number of cells: 4.6±12.2
[1]; four weeks after ischemia
  numbers of neurocytes in CA1: 157±60 cells/mm
[1]; one week after ischemia
  numbers of neurocytes in CA1: 219±74 cells/mm
[1]; three weeks after ischemia
  numbers of neurocytes in CA1: 185±83 cells/mm
[1]; two weeks after ischemia
  numbers of neurocytes in CA1: 152±72 cells/mm
[1]; 0.5 to 2 μg MK into the ventricle just before ischemic injury, seven days after
  nuclei in CA1 region, hematoxylin-eosine, high magnification: survived circle nuclei were observed
[1]; 0.5 to 2 μg MK just before ligation, seven days after
  TUNEL stained nuclei in hippocampal region CA1: Few stained nuclei were observed
[1]; 28 days after the injury
  activity against delayed neuronal death: showed a significant activity
[1]; MK injected into the ventricle before 5 min ischemia, one week after
  cells containing TUNEL reaction positive nuclei and atrophied neurocytes in hippocampal region CA1: such neurocytes were not observed
